The results in this text go back to paper PMC7378745.

Common to all, as to assay: Tox-Luc (ToxR-TM-MBP) TM domain dimerisation assay in E. coli, luciferase read-out
The target of assay [1] is mutant GpA (G83I) TM domain in the ToxLuc construct (ToxR-TM-MBP). The following applies: parent: est. 5500; read off a plot.
In assay [2] the target is Y145L/T150L (YT/LL) mutated mouse CD28 TM domain in the ToxLuc construct (ToxR-TM-MBP). Particulars: read off a plot.
Assay [3] addresses YT/LL mutated human CD28 TM domain in the ToxLuc construct (ToxR-TM-MBP). The following applies: parent: est. 23000; read off a plot.

Take “wild type (WT) GpA TM domain in the ToxLuc construct (ToxR-TM-MBP) G83I”: the response (Relative Light units) in assay [1] is 700. Turning to “WT mouse CD28 TM domain in the ToxLuc construct (ToxR-TM-MBP) Y145L; T150L”, the results for the response (Relative Light units) in assay [2] (parent: est. 2500) and in assay [2] (parent: est. 19000) were 270 and 3100, respectively. With “WT human CD28 TM domain in the ToxLuc construct (ToxR-TM-MBP) YT/LL”, the response (Relative Light units) in assay [3] worked out at 2900.
